We go through two molecules from article PMC9105370, “Human Serine Racemase Weakly Binds the Third PDZ Domain of PSD-95” (International Journal of Molecular Sciences, 2022).

The target in data set [1] is Human serine racemase (human) (UniProt Q9GZT4).
The target is the same in data set [2]. As to the kind of experiment: ITC; PSD-95 PDZ3 (600 uM, syringe) titrated into hSR (20 uM, cell); 25 °C, 50 mM HEPES pH 8.0; single-site model. On the technique in general: ITC needs no label: the signal is the heat of the interaction.
Data set [3] deals with the molecule itself. As to the kind of experiment: cross-linking; 0.1% (w/v) glutaraldehyde, 10 min, room temperature, 50 mM HEPES pH 8.0; 15 uM hSR and 30 uM PSD-95 PDZ3, together or each alone; SDS-PAGE.

Turning to “Third PDZ domain of postsynaptic density protein 95 (domain or fragment)”, in data set [1], the hSR activity (beta-elimination of L-serine, LDH-coupled assay), 0.44 uM hSR with 500 uM PSD-95 PDZ3, in the absence of ATP was 22%. In data set [2], this molecule returned a dissociation constant (Kd) of 82 µM.

B1: Human serine racemase (enzyme, UniProt Q9GZT4 1-340, looked up)
chain: MCAQYCISFADVEKAHINIRDSIHLTPVLTSSILNQLTGRNLFFKCELFQKTGSFKIRGALNAVRSLVPDALERKPKAVVTHSSGNHGQALTYAAKLEGIPAYIVVPQTAPDCKKLAIQAYGASIVYCEPSDESRENVAKRVTEETEGIMVHPNQEPAVIAGQGTIALEVLNQVPLVDALVVPVGGGGMLAGIAITVKALKPSVKVYAAEPSNADDCYQSKLKGKLMPNLYPPETIADGVKSSIGLNTWPIIRDLVDDIFTVTEDEIKCATQLVWERMKLLIEPTAGVGVAAVLSQHFQTVSPEVKNICIVLSGGNVDLTSSITWVKQAERPASYQSVSV
notes: human serine racemase (EC 5.1.1.18), PLP-dependent homodimer; monomer 38 kDa; also called hSR; SR; source: E. coli BL21 CodonPlus (DE3)-RIL co-expressing GroEL and GroES, purified (TALON resin); not shown: His6, N-terminal, kept
Regarding B1, in data set [3], the binding result is “binds”.

In general, Kd refers to the concentration at which binding is half-saturated. Low readings indicate tighter binding, high ones weaker binding.
